The source of these data is patent US8444970B2, “Compositions and methods for treating ocular diseases and conditions” (Lpath, Inc., priority 2006, dated 2013).

One experiment deals with perivascular fibrosis. In words: Permanent myocardial infarction model, cardiac scar formation (Masson's trichrome). The experiment is classed as in vivo, mouse. The note with it: 25 mg/kg systemic, initiated 48 hrs after surgery. The method, then: Studies evaluated the efficacy of SPHINGOMAB to reduce cardiac scar formation after permanent myocardial infarction (MI) via ligation of the left descending coronary artery in mice. Systemic administration of 25 mg/kg SPHINGOMAB or saline was initiated 48 hrs after surgery. Antibody administration at 48 hr. was chosen to allow normal, reparative scar formation to occur during the early remodeling phase and permit beneficial, S1P-stimulated angiogenesis immediately after the MI. Two weeks after the infarct, mice were sacrificed and fibrosis was accessed by Masson's trichrome staining of the cardiac tissue. […] As a control for any non-specific wound-healing responses, sham animals underwent thoracotomy without coronary artery ligation (FIG. 7E).

For the next experiment, the system named is Swiss 3T3 fibroblasts. In words: S1P-stimulated fibroblast proliferation (3H-thymidine incorporation). The note with it: 1 ug/mL antibody, 12-24 hr. The experiment is classed as cell-based. As to the method: (§1) FIG. 7. […] See Example 7, below, for experimental details. […] In these experiments, fibroblasts were serum-starved and then treated with 0, 0.1, 0.5, or 1 μM S1P+/−1 μg/mL SPHINGOMAB for 12-24 hr. […] SPHINGOMAB neutralized each of these S1P effects. SPHINGOMAB reduced perivascular fibrosis in vivo in a murine model of a permanent myocardial infarction (E).
(§2) S1P makes profound contributions to wound healing by activating fibroblast migration, proliferation and collagen production; SPHINGOMAB neutralizes these effects. Several studies using multiple types of fibroblasts confirm S1P's ability to promote wound healing: 1) S1P increased Swiss-3T3 fibroblast proliferation as measured by ^3H-thymidine incorporation using standard methods (FIG. 7A); 2) S1P promoted the migration of cardiac fibroblasts in a standard scratch wound healing assay. […] In each of these assays, SPHINGOMAB neutralized S1P's. It is anticipated that ocular fibroblasts would respond similarly to S1P and SPHINGOMAB.

A further experiment has as its system WI-38 lung fibroblasts. In words: S1P-induced differentiation into myofibroblasts (alpha-SMA immunoblot). It is filed as cell-based. The note with it: 1 ug/mL antibody, 12-24 hr. The method, then: as §1, §2
For orientation: Immunoblotting shows a protein as a band on a membrane.

The subject of experiment [1] is endothelial cell (EC) infiltration into Matrigel plugs. Kind of experiment: In vivo Matrigel plug assay, S1P-supplemented plugs, EC infiltration. The note with it: systemic administration every 48 hrs from 1 day prior to implantation. More on the design: species or system mouse. The method, then: Based on in vivo studies showing that S1P increased endothelial capillary growth into subcutaneously implanted Matrigel plugs, we speculated that SPHINGOMAB could reduce de novo BV formation in vivo. To investigate this, we employed the in vivo Matrigel Plug assay for neovascularization. In one set of experiments, Matrigel was supplemented with either […], 0.5 μg/mL bFGF or 1 μg/mL VEGF and then injected […]. into mice (n=4). After 10 days, the mice were heparinized and injected with the fluorescent lectin, Isolectin B4-FITC, which binds to adhesion molecules expressed by vascular EC that form the growing BVs. The plugs were then excised, frozen in OCT, sectioned and viewed for FITC-stained BVs.
Sections of the plugs were then stained with hemotoxyln & eosin for evaluation of EC infiltration (FIG. 6B). The infiltration of ECs is a critical step in neo-vascularization. […] Cell infiltration is presumed to be ECs although we recognize that other cell types such as immune cells may also be stained.

The subject of experiment [2] is ovarian cancer (OVCAR3) cells. In words: S1P-induced IL-8 release from ovarian cancer cells. The experiment is classed as cell-based. The note with it: 1 uM S1P, 22 hours. The method, then: FIG. 12. FIG. 12 has two panels, A and B, that show data from in vitro cell assays performed using several humanized monoclonal antibody variants. […] As described in Example 16, below, SKOV3 cells were treated for 48 hr. with 500 nM Taxol (Tax) in the presence or absence of 500 nM S1P with huMAbHCLC3 (309), huMAbHCLC5 (308), muMAb S1P (muMAb), or non-specific IgG1 (NS) at a concentration of 1 μg/mL. Values represent means±SEM (n=3) with triplicates run for each data point. “NT” means not treated, and “Veh” stans for vehicle only. […] In the experiments described in detail in Example 16, below, 100,000 OVCAR3 cells/well were starved overnight and 1 uM S1P was added to the culture media alone or pre-incubated with 1 ug/ml of non-specific antibody (NS), pATH201+pATH309 (LC3), pATH201+pATH308 (LC5), pATH207+pATH309 (cysLC3), pATH207+pATH308 (cysLC5), and 0.1 ug/ml (M0.1), 1 ug/ml (M1) or 10 ug/ml (M10) of anti-S1P murine antibody. After 22 hours of incubation, cell supernatants were collected and IL-8 secretion was measured by ELISA using an R&D system Quantikine human CXCL8/IL-8 kit. In the figure “NT” refers to non-treated cells.
In parallel, all the variants were tested for their effects on S1P-induced cytokine release from cancer cells. S1P is known to elicit significant release of IL-8 into the cell-conditioned media from cancer cells.

Experiment [3] relates to murine cardiac fibroblasts. In words: S1P-stimulated cardiac fibroblast migration, scratch assay. It is filed as cell-based, mouse. The note with it: 1 ug/mL antibody, 12-24 hr. As to the method: as §1, §2
The test system of experiment [4] is macrophage and mast cell infiltration. Kind of experiment: Murine infarct model, immune cell infiltration into the wound. The note with it: 25 mg/kg 48 hr after surgery, four days post-MI. The experiment is classed as in vivo, mouse. The method, then:
FIG. 9. […] SPHINGOMAB reduced immune-cell wound infiltration in vivo. Mice were subjected to MI, treated with saline or 25 mg/kg SPHINGOMAB 48 hr. after surgery and then sacrificed on day 4. SPHINGOMAB reduced macrophage (A) and mast cell (B) infiltration into the wound. Data are represented as fold decrease of saline-treated values.
Based upon the similarities of immune and inflammatory responses in CNV and CVD, the efficacy of SPHINGOMAB to mitigate immune cell infiltration into a wound was evaluated in a murine infarct model as an indication of SPHINGOMAB's potential effects in mitigating these damages during AMD [Vine, et al. (2005), Opthalmology., vol 112: 2076-80; and Seddon and Chen (2004), Int Opthalmol Clin., vol 44: 17-39]. Four days post-MI, macrophage and mast cell infiltration was evaluated using MAC-1 and MCG35 antibodies, respectively, within the area at risk.

B1: LT1002: murine anti-S1P monoclonal antibody, IgG1 kappa, hybridoma clone 306D326.26 (antibody, listed as Mus sp., V domains shown)
VH: QAHLQQSDAELVKPGASVKISCKVSGFIFIDHTIHWMKQRPEQGLEWIGCISPRHDITKYNEMFRGKATLTADKSSTTAYIQVNSLTFEDSAVYFCARGGFYGSTIWFDFWGQGTTLTVS
VL: ETTVTQSPASLSMAIGEKVTIRCITTTDIDDDMNWFQQKPGEPPNLLISEGNILRPGVPSRFSSSGYGTDFLFTIENMLSEDVADYYCLQSDNLPFTFGSGTKLEIK
As to B1, the “perivascular fibrosis two weeks after infarct” value in the experiment with perivascular fibrosis is on record as “almost complete abrogation”. The “S1P-stimulated Swiss 3T3 fibroblast proliferation” value with Swiss 3T3 fibroblasts is reported as “neutralized”. Besides, the “S1P-induced differentiation of WI-38 fibroblasts into myofibroblasts” value in the experiment on WI-38 lung fibroblasts was “neutralized”. For the same molecule, the “EC infiltration into S1P-containing Matrigel plugs” value in experiment [1] was “reduced amount of EC infiltration”. Moreover, in experiment [2], the IL-8 release result is “reduced IL-8 release”. In addition, the “S1P-promoted cardiac fibroblast migration” value in experiment [3] was “neutralized”. Also, in experiment [4], the “density of inflammatory macrophages” value was “dramatically attenuated” and the “density of mast cells” value is “dramatically attenuated”.
